{"source": "patent US20260102528A1", "about": "(University of California, published 2026)", "key": {"[1]": {"molecular_target": "T1, V7-AMG510 HLA-A*03:01 MHC-I complex (human)", "T1 construct": "also called V7-Sotorasib A*03:01; V7-510 A*03:01", "assay": "BLI (Octet), derived from FIG. 3A; biotinylated MHC-I complex on streptavidin biosensor", "method": "(§1) Kinetic measurements via Octet. Kinetic constants for Fabs were determined using an Octet RED384 instrument (ForteBio). For screens, a single concentration of Fab (100 nM) was tested, and for kinetic characterization Fabs were tested at several concentrations, as noted in the relevant figure. Biotinylated peptides (1 μM in 1% BSA/PBS) or biotinylated MHC-I complexes (200 nM in 1% BSA/PBS) were immobilized on ForteBio streptavidin SA biosensors for all assays. All measurements were performed in 1% BSA PBS pH 7.4 in 384 well plates. Data were analyzed using a 1:1 interaction model with global fitting on the ForteBio data analysis software (9.0.0.6). KD values were determined by the fitting of either equilibrium or maximum response (nm) as a function of Fab concentration."}, "[2]": {"molecular_target": "T1, V7-AMG510 HLA-A*03:01 MHC-I complex", "assay": "BLI (Octet), Fab on immobilised biotinylated pMHC", "method": "as §1"}, "[3]": {"molecular_target": "T1, V7-AMG510 HLA-A*03:01 MHC-I complex", "assay": "competition ELISA: the concentration is that of free AMG510 (small molecule, the varied competitor) preincubated with the Fab; read-out is Fab binding to streptavidin-captured V7-AMG510 HLA-A*03:01, anti-myc IgG-HRP; legend calls the values approximate", "method": "FIG. 3A-3D show characterizations of six V7-AMG510 A*03:01-reactive Fabs. […] Approximate IC₅₀ values for free drug (AMG510) competition for each clone are reported, as derived from FIG. 3C. […] Recombinant V7-AMG510 HLA-A*03:01 was captured via streptavidin in an ELISA and increasing amounts of free AMG510 preincubated with the indicated clones in Fab format before detection of Fab binding with an anti-myc secondary IgG-HRP conjugate. Data are presented as the mean #standard deviation of three replicates. […] Data are presented as the mean±standard deviation of four replicates."}, "[4]": {"molecular_target": "T2, V7-ARS1620 HLA-A*03:01 MHC-I complex (human)", "T2 construct": "also called V7-ARS HLA-A*03:01; V7-ARS A*03:01", "assay": "competition ELISA: the concentration is that of free ARS1620 (small molecule, the varied competitor); read-out is P2B2 IgG-HRP binding to W6/32-captured A*03:01/V7-ARS", "method": "The complexes were captured by the conformation-specific antibody W6/32 and detected by the ARS1620-specific antibody (P1A4) in the presence of various amounts of free ARS1620. Data is presented as mean±standard deviation for four replicates.\nMHC-I refolding and purification. […] Refolding reactions were performed with various peptides of interest in refolding buffer (100 mM Tris pH 8.0, 400 mM L-Arginine.HCl, 5 mM reduced glutathione, 0.5 mM oxidized glutathione, 2 mM EDTA, and complete protease inhibitor cocktail (Roche)). Briefly, B2m (2 μM) and peptide (10 μM) were diluted into refolding buffer, then denatured heavy chain was added to 1 μM. Reactions proceeded at 10° C. overnight for ELISA assays. MHC-I ELISAs. Black, 384 well Nunc Maxisorp plates were coated with 50 μL of the anti-heavy chain antibody W6/32 (Bio X Cell Cat #BE0079, RRID:AB_1107730) at 5 μg/mL in PBS overnight. The plate was washed twice with PBS (100 μL) and blocked with 3% BSA PBS (120 μL) for 1 hour at room temperature. Plates were then washed three times with 0.05% Tween-20 PBS (PBST) (100 μL). Refolded MHC complexes (crude or FPLC purified) were diluted 10× into 1% BSA PBS and 50 μL added to wells in quadruplicate. Plates were incubated at room temperature with shaking for 1 hour, then washed three times with 1% BSA PBS (100 μL)."}, "[5]": {"molecular_target": "T3, K5-ARS1620 HLA-A*02:01 MHC-I complex (human)", "T3 construct": "also called K5-ARS HLA-A*02:01", "assay": "BLI (Octet), Fab on immobilised biotinylated pMHC", "method": "as §1"}, "[6]": {"molecular_target": "T2, V7-ARS1620 HLA-A*03:01 MHC-I complex", "assay": "BLI (Octet), Fab on immobilised biotinylated pMHC", "method": "as §1"}, "[7]": {"molecular_target": "T1, V7-AMG510 HLA-A*03:01 MHC-I complex", "assay": "BLI, Fab on pMHC", "method": "as §1"}}}
{"binder": "P2E3 Fab (Fab, V domains shown) VH: QVQLQESGPGLVKPSETLSLTCTVSGGSVSSSSYYWGWIRQPPGEGLEWIGSIYYSGSTYYNPSLKSRVTISVDTSKNQFSLKLSSVTAADTAVYYCATRLRGSFDYWGQGTLVTVSS VL: DVVMTQSPLSLPVTPGEAASISCRSSQSLLHSNGYTYLDWYLQKPGQSPRLLIYSGSNRASGVPDRFSGSGSGTDFTLKISRVEAEDVGVYYCMQGTHWPYTFGQGTRLEIKR", "values": [{"measurement": "Kd", "setting": "[1]", "value": 68, "unit": "nM"}]}
{"binder": "P1E5 Fab (Fab, V domains shown) VH: QVQLQESGGGVVQPGRSLRLSCAASGFTFSSYEMNWVRQAPGKGLEWVAVISYDGSNKYYADSVKGRFTISRDNSKNTLYLQMNSLRAEDTAVYYCARDAYSGWFDYWGQGTLVTVSS VL: not shown", "values": [{"measurement": "Kd", "setting": "[2]", "value": 13, "unit": "nM"}, {"measurement": "AMG510 IC50", "setting": "[3]", "value": "~200", "unit": "nM"}]}
{"binder": "P2B6 Fab (Fab, V domains shown) VH: QLQLQESGPGLVKPSETLSLTCTVSGVSISSRSDHWGWVRQPPGKGLEWIGSISYSGSTYYNPSLKSRVTISVDTSKNQLSLKLTSVTAADTAVYYCARRALAQQLVMDVWGQGTTVTVSS VL: DVVMTQSPLSLPVTPGEPASISCRSSQSLLRNNGYNYLDWYLQKPGQSPQLLIYLGSNRASGVPDRFSGSGSGRDFTLKISRVEAEDVGIYYCMQGAHWPYTFGQGTNLEISR", "values": [{"measurement": "Kd", "setting": "[1]", "value": 29, "unit": "nM"}, {"measurement": "AMG510 IC50", "setting": "[3]", "value": "~74", "unit": "nM"}]}
{"binder": "P2B2 IgG-HRP conjugate (antibody, V domains shown, also called V7-ARS-HLA-A*03:01-specific antibody P2B2) VH: QVQLVESGGGVVQPGRYLRLSCATSGFTFSNYAMHWVRQAPGKGLEWVALISYDGSNKYYADSVKGRFTISRDKSTNALYLQMNSLRVEDTAVYYCARERVPWDYYGMDVWGQGTTVTVSS VL: QSVVTQPPSVSAAPGHKVSISCSGSNSNIGHNYVSWYQQFPGTAPKLLVYRDDNRPSEVPDRFSGSKSGTSATLGITGLQTADEADYYCGTWDSTLQHVVFGGGTKLTVL", "values": [{"measurement": "IC50 of free ARS1620", "setting": "[4]", "value": 445, "unit": "nM"}]}
{"binder": "P2B2 Fab (Fab, V domains shown, also called P282) VH: QVQLVESGGGVVQPGRYLRLSCATSGFTFSNYAMHWVRQAPGKGLEWVALISYDGSNKYYADSVKGRFTISRDKSTNALYLQMNSLRVEDTAVYYCARERVPWDYYGMDVWGQGTTVTVSS VL: QSVVTQPPSVSAAPGHKVSISCSGSNSNIGHNYVSWYQQFPGTAPKLLVYRDDNRPSEVPDRFSGSKSGTSATLGITGLQTADEADYYCGTWDSTLQHVVFGGGTKLTVLS", "values": [{"measurement": "Kd", "setting": "[5]", "value": 470, "unit": "nM"}, {"measurement": "Kd", "setting": "[6]", "value": 43, "unit": "nM"}]}
{"binder": "P1C10 Fab (Fab, V domains shown) VH: QVQLVQSGGGLVKPGGSLRLSCAASGFTFSSYSMNWVRQAPGKGLEWVSYISSRGRTIYYADSVKGRFTISRDNAKNSLYLQMNSLRAEDTAVYYCVRDVPGVWGFAYWGQGTLVTVSS VL: QSVVTQPPSVSAAPGQKVTISCSGSSSNIGNHYVSWYQQLPGTAPKLLIYDDGKRPSGIPDRFSGSKSGTSATLGITGLQTGDEADYYCATWDNSLSVVLFGGGTKLTVLG", "values": [{"measurement": "Kd", "setting": "[5]", "value": 320, "unit": "nM"}, {"measurement": "Kd", "setting": "[6]", "value": 59, "unit": "nM"}]}
{"binder": "P1H4 Fab (Fab, V domains shown) VH: EVQLVQSGAEVKKPGSSVKVSCKASGGTFSSYAISWVRQAPGQGLEWMGGIIPIFGTANYAQKFQGRVTITADKSTSTAYMELSSLRSEDTAVYYCAFNYYDSSGYSDYWGQGTLVTVSS VL: ETTLTQSPGTLSLSPGERATLSCRASQSVSSSYLAWYQQKPGQAPRLLIYGASSRATGIPDRFSGSGSGTDFTLTISRLEPGDFAVYYCQQYGTSPITFGQGTRLEIKR", "values": [{"measurement": "Kd", "setting": "[1]", "value": 59, "unit": "nM"}, {"measurement": "AMG510 IC50", "setting": "[3]", "value": "~930", "unit": "nM"}]}
{"binder": "P1B7 Fab (Fab, V domains shown) VH: QVQLQQSGPGLVKPSQTLSLTCAISGDSVSSNSVAWNWIRQSPSRGLEWLGRTYYRSKWYSDYAVSVKSRITINPDTSKNQFSLQLTSMTPEDTAVYYCAREGVTMGPGAFDIWGQGTMVTVSS VL: QSALTQPPSVSGSPGQSVTISCTGSSSDVGHYNRVSWYQQSPGTAPKLMIYDVSNRPSGAFSRFSGSRSGNTASLTISGLQPEDEADYYCSSHRTGYTVEVFGTGTKVTVLG", "values": [{"measurement": "Kd", "setting": "[7]", "value": 15, "unit": "nM"}]}
{"binder": "P2C1 Fab (Fab, V domains shown) VH: EVQLVQSGAEVKKPGSSVKVSCKASGGTFSSYAISWVRQAPGQGLEWMGIINPSGGSTSYAQKFQGRVTMTRDTSTSTVYMELSSLRSEDTAVYYCARDLGTIFEANGAFDIWGQGTMVTVSS VL: QSALTQPASVSGSPGQSITISCTGTSSDVGSYNLVSWYQQHPGKAPKLMIYDVSNRPSGVSNRFSGSKSGNTASLTISGLQAEDEADYYCSSYTSSSTLVFGTGTNVTVLG", "values": [{"measurement": "Kd", "setting": "[2]", "value": 230, "unit": "nM"}, {"measurement": "AMG510 IC50", "setting": "[3]", "value": "~1500", "unit": "nM"}]}
